Source: patent US20240150495A1

T1: synthetic peptide Rp10-L, a mimotope of B-cell molecular marker CD20
T1 sequence (peptide): ITPWPHWLERSS


Columns and labels:
[1] = target: T1, synthetic peptide Rp10-L, a mimotope of B-cell molecular marker CD20; assay: ELISA, periplasmic extract, Rp10-L 50.0 µg/ml; well without peptide 0.265
[2] = target: T1, synthetic peptide Rp10-L, a mimotope of B-cell molecular marker CD20; assay: ELISA, periplasmic extract, Rp10-L 6.25 µg/ml; well without peptide 0.265
[3] = target: T1, synthetic peptide Rp10-L, a mimotope of B-cell molecular marker CD20; assay: ELISA, periplasmic extract, Rp10-L 12.5 µg/ml; well without peptide 0.265
[4] = target: T1, synthetic peptide Rp10-L, a mimotope of B-cell molecular marker CD20; assay: ELISA, periplasmic extract, Rp10-L 0.81 µg/ml; well without peptide 0.265
[5] = target: T1, synthetic peptide Rp10-L, a mimotope of B-cell molecular marker CD20; assay: ELISA, periplasmic extract, Rp10-L 3.13 µg/ml; well without peptide 0.265
[6] = target: T1, synthetic peptide Rp10-L, a mimotope of B-cell molecular marker CD20; assay: ELISA, periplasmic lysate on coated Rp10-L, single well; plate A background 0.027
[7] = target: T1, synthetic peptide Rp10-L, a mimotope of B-cell molecular marker CD20; assay: ELISA, periplasmic extract, Rp10-L 1.63 µg/ml; well without peptide 0.265
[8] = target: T1, synthetic peptide Rp10-L, a mimotope of B-cell molecular marker CD20; assay: ELISA, periplasmic extract, Rp10-L 25.0 µg/ml; well without peptide 0.265
[9] = target: T1, synthetic peptide Rp10-L, a mimotope of B-cell molecular marker CD20; assay: ELISA, periplasmic extract, Rp10-L 12.5 µg/ml; well without peptide 0.469
[10] = target: T1, synthetic peptide Rp10-L, a mimotope of B-cell molecular marker CD20; assay: ELISA, periplasmic extract, Rp10-L 1.63 µg/ml; well without peptide 0.469
[11] = target: T1, synthetic peptide Rp10-L, a mimotope of B-cell molecular marker CD20; assay: ELISA, periplasmic lysate on coated Rp10-L, single well; plate D background 0.035
[12] = target: T1, synthetic peptide Rp10-L, a mimotope of B-cell molecular marker CD20; assay: ELISA, periplasmic extract, Rp10-L 0.81 µg/ml; well without peptide 0.469
[13] = target: T1, synthetic peptide Rp10-L, a mimotope of B-cell molecular marker CD20; assay: ELISA, periplasmic extract, Rp10-L 6.25 µg/ml; well without peptide 0.469
[14] = target: T1, synthetic peptide Rp10-L, a mimotope of B-cell molecular marker CD20; assay: ELISA, periplasmic extract, Rp10-L 3.13 µg/ml; well without peptide 0.469
[15] = target: T1, synthetic peptide Rp10-L, a mimotope of B-cell molecular marker CD20; assay: ELISA, periplasmic extract, Rp10-L 25.0 µg/ml; well without peptide 0.469
[16] = target: T1, synthetic peptide Rp10-L, a mimotope of B-cell molecular marker CD20; assay: ELISA, periplasmic extract, Rp10-L 50.0 µg/ml; well without peptide 0.469

Row | ELISA absorbance [1] | ELISA absorbance [2] | ELISA absorbance [3] | ELISA absorbance [4] | ELISA absorbance [5] | A492/620 [6] | ELISA absorbance [7] | ELISA absorbance [8] | ELISA absorbance [9] | ELISA absorbance [10] | A492/620 [11] | ELISA absorbance [12] | ELISA absorbance [13] | ELISA absorbance [14] | ELISA absorbance [15] | ELISA absorbance [16] | Binder
1 | 0.398 | 0.343 | 0.315 | 0.362 | 0.352 | 0.395 A492/620 | 0.383 | 0.335 | – | – | – | – | – | – | – | – | CH3 clone A21 (mutated human IgG1 CH3 domain, CH3+3 library) (designed binder, not shown: small tags and cut ends) MAPREPQVYTLPPSRDELVDGQVSLTCLVKGFYPSDIAVEWESNGQPENNYKTTPPVLDSDGSFFLYSKLTVPWGPRDRWWPGNVFSCSVMHEALHNHYTQKSLSLSPGKAAA
2 | – | – | – | – | – | – | – | – | 0.77 | 0.719 | 0.448 A492/620 | 0.66 | 0.694 | 0.719 | 0.868 | 0.765 | CH3 clone D39 (mutated human IgG1 CH3 domain, CH3+3 library) (designed binder, not shown: small tags and cut ends) MAPREPQVYTLPPSRDELGWWQVSLTCLVKGFYPSDIAVEWESNGQPENNYKTTPPVLDSDGSFFLYSKLTVQQKPFARWTDGNVFSCSVMHEALHNHYTQKSLSLSPGKAAA
